Assay results published in patent US20180155451A1 (published 2018).

T1: FcγRIIb (human, UniProt P31994 43-217)
T1 construct: extracellular domain; also called 2b; FcgRIIb
T1 sequence (looked up): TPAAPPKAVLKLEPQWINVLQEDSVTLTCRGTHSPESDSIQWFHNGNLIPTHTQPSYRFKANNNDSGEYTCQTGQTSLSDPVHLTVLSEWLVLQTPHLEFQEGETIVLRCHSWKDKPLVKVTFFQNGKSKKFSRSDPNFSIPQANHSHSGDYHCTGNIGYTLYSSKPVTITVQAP

T2: FcγRIIb extracellular domain with C-terminal His tag (human, UniProt P31994 43-217)
T2 construct: extracellular domain; also called 2b; FcgRIIb; not shown: His tag at the C terminus
T2 sequence (looked up): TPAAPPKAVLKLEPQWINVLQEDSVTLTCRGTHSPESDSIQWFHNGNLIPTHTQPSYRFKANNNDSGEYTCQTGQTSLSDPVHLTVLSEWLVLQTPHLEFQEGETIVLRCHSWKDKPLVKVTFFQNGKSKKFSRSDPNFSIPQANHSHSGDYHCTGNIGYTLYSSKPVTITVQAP


Experiments:
[1] = target: T1, FcγRIIb; assay: SPR (Biacore), binding relative to GpH7-A5/GpH7-B3/GpL16-k0 = 100
[2] = target: T3, FcγRIIIa extracellular domain with C-terminal His tag (human, UniProt P08637 17-208); assay: SPR (Biacore), relative binding, GpH7-A5/GpH7-B3/GpL16-k0 = 100
T3 construct: extracellular domain; also called 3a; FcgRIIIa; not shown: His tag at the C terminus
Experimental: (§1) Analysis of interaction between objective antibody and the FcγR was carried out using Biacore T100 (GE Healthcare). HBS-EP+ (GE Healthcare) was used as the running buffer, and the measurement temperature was set to 25° C. Chips produced by immobilizing the antigen peptide by the amine coupling method to a Series S Sencor Chip CM5 (GE Healthcare), or alternatively, chips produced by allowing preliminarily biotinylated antigen peptides to interact with and immobilize onto a Series S Sensor Chip SA (certified) (GE Healthcare) were used. Antibodies of interest were captured onto an antigen peptide-immobilized chip, and allowed to interact to each FcγR diluted with running buffer. To regenerate and repeatedly use the chip, the antibodies captured on the chip were washed off by reacting 10 mM glycine-HCl, pH 1.5.
(§2) The FcγR-binding activity of each antibody was assessed primarily using as an indicator the FcγR-binding activity and dissociation constant for FcγR.

[3] = target: T2, FcγRIIb extracellular domain with …; assay: as above
Experimental: as §1, §2

T3 sequence (P08637 17-208): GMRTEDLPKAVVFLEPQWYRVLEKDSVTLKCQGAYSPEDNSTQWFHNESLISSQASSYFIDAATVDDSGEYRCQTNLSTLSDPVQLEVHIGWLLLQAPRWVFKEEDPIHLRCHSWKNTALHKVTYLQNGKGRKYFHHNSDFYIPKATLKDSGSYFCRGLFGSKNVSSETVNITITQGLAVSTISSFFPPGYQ

Binder	He/Con_2b [1]	He/Con_3a [2]	He/Con_2b [3]
GpH7-A5/GpH7-B3 variant S337_20W/GpL16-k0 (antibody, human IgG1, kappa, also called He Ab S337_20W) heavy 1: not shown heavy 2: not shown light: DIVMTQSPLSLPVTPGEPASISCQASESLVHSNRNTYLHWYLQKPGQSPQLLIYKVSNRFSGVPDRFSGSGSGTDFTLKISRVEAEDVGVYYCSQNTHVPPTFGQGTKVEIERTVAAPSVFIFPPSDEQLKSGTASVVCLLNNFYPREAKVQWKVDNALQSGNSQESVTEQDSKDSTYSLSSTLTLSKADYEKHKVYACEVTHQGLSSPVTKSFNRGEC	109 % of control		
GpH7-A5/GpH7-B3 variant V266_01G/GpL16-k0 (antibody, human IgG1, kappa, He Ab: mutation in the GpH7-B3 H chain only; also called He Ab) heavy 1: not shown heavy 2: not shown light: DIVMTQSPLSLPVTPGEPASISCQASESLVHSNRNTYLHWYLQKPGQSPQLLIYKVSNRFSGVPDRFSGSGSGTDFTLKISRVEAEDVGVYYCSQNTHVPPTFGQGTKVEIERTVAAPSVFIFPPSDEQLKSGTASVVCLLNNFYPREAKVQWKVDNALQSGNSQESVTEQDSKDSTYSLSSTLTLSKADYEKHKVYACEVTHQGLSSPVTKSFNRGEC		24 % of control	51.5 % of control
GpH7-A5/GpH7-B3 variant T335_07I/GpL16-k0 (antibody, human IgG1, kappa, also called He Ab T335_07I) heavy 1: not shown heavy 2: not shown light: DIVMTQSPLSLPVTPGEPASISCQASESLVHSNRNTYLHWYLQKPGQSPQLLIYKVSNRFSGVPDRFSGSGSGTDFTLKISRVEAEDVGVYYCSQNTHVPPTFGQGTKVEIERTVAAPSVFIFPPSDEQLKSGTASVVCLLNNFYPREAKVQWKVDNALQSGNSQESVTEQDSKDSTYSLSSTLTLSKADYEKHKVYACEVTHQGLSSPVTKSFNRGEC	106 % of control		
GpH7-A5/GpH7-B3 variant A327_09D/GpL16-k0 (antibody, human IgG1, kappa, He Ab: mutation in the GpH7-B3 H chain only; also called He Ab) heavy 1: not shown heavy 2: not shown light: DIVMTQSPLSLPVTPGEPASISCQASESLVHSNRNTYLHWYLQKPGQSPQLLIYKVSNRFSGVPDRFSGSGSGTDFTLKISRVEAEDVGVYYCSQNTHVPPTFGQGTKVEIERTVAAPSVFIFPPSDEQLKSGTASVVCLLNNFYPREAKVQWKVDNALQSGNSQESVTEQDSKDSTYSLSSTLTLSKADYEKHKVYACEVTHQGLSSPVTKSFNRGEC		83.7 % of control	172 % of control
GpH7-A5/GpH7-B3 variant T335_20W/GpL16-k0 (antibody, human IgG1, kappa, also called He Ab T335_20W) heavy 1: not shown heavy 2: not shown light: DIVMTQSPLSLPVTPGEPASISCQASESLVHSNRNTYLHWYLQKPGQSPQLLIYKVSNRFSGVPDRFSGSGSGTDFTLKISRVEAEDVGVYYCSQNTHVPPTFGQGTKVEIERTVAAPSVFIFPPSDEQLKSGTASVVCLLNNFYPREAKVQWKVDNALQSGNSQESVTEQDSKDSTYSLSSTLTLSKADYEKHKVYACEVTHQGLSSPVTKSFNRGEC	104 % of control		
GpH7-A5/GpH7-B3 variant T335_19Q/GpL16-k0 (antibody, human IgG1, kappa, also called He Ab T335_19Q) heavy 1: not shown heavy 2: not shown light: DIVMTQSPLSLPVTPGEPASISCQASESLVHSNRNTYLHWYLQKPGQSPQLLIYKVSNRFSGVPDRFSGSGSGTDFTLKISRVEAEDVGVYYCSQNTHVPPTFGQGTKVEIERTVAAPSVFIFPPSDEQLKSGTASVVCLLNNFYPREAKVQWKVDNALQSGNSQESVTEQDSKDSTYSLSSTLTLSKADYEKHKVYACEVTHQGLSSPVTKSFNRGEC	100 % of control		
GpH7-A5/GpH7-B3 variant T335_16H/GpL16-k0 (antibody, human IgG1, kappa, also called He Ab T335_16H) heavy 1: not shown heavy 2: not shown light: DIVMTQSPLSLPVTPGEPASISCQASESLVHSNRNTYLHWYLQKPGQSPQLLIYKVSNRFSGVPDRFSGSGSGTDFTLKISRVEAEDVGVYYCSQNTHVPPTFGQGTKVEIERTVAAPSVFIFPPSDEQLKSGTASVVCLLNNFYPREAKVQWKVDNALQSGNSQESVTEQDSKDSTYSLSSTLTLSKADYEKHKVYACEVTHQGLSSPVTKSFNRGEC	102 % of control		
GpH7-A5/GpH7-B3 variant T335_18N/GpL16-k0 (antibody, human IgG1, kappa, also called He Ab T335_18N) heavy 1: not shown heavy 2: not shown light: DIVMTQSPLSLPVTPGEPASISCQASESLVHSNRNTYLHWYLQKPGQSPQLLIYKVSNRFSGVPDRFSGSGSGTDFTLKISRVEAEDVGVYYCSQNTHVPPTFGQGTKVEIERTVAAPSVFIFPPSDEQLKSGTASVVCLLNNFYPREAKVQWKVDNALQSGNSQESVTEQDSKDSTYSLSSTLTLSKADYEKHKVYACEVTHQGLSSPVTKSFNRGEC	102 % of control		
GpH7-A5/GpH7-B3 variant V266_20W/GpL16-k0 (antibody, human IgG1, kappa, He Ab: mutation in the GpH7-B3 H chain only; also called He Ab) heavy 1: not shown heavy 2: not shown light: DIVMTQSPLSLPVTPGEPASISCQASESLVHSNRNTYLHWYLQKPGQSPQLLIYKVSNRFSGVPDRFSGSGSGTDFTLKISRVEAEDVGVYYCSQNTHVPPTFGQGTKVEIERTVAAPSVFIFPPSDEQLKSGTASVVCLLNNFYPREAKVQWKVDNALQSGNSQESVTEQDSKDSTYSLSSTLTLSKADYEKHKVYACEVTHQGLSSPVTKSFNRGEC			71.9 % of control
GpH7-A5/GpH7-B3 variant V266_06M/GpL16-k0 (antibody, human IgG1, kappa, also called He Ab V266_06M) heavy 1: not shown heavy 2: not shown light: DIVMTQSPLSLPVTPGEPASISCQASESLVHSNRNTYLHWYLQKPGQSPQLLIYKVSNRFSGVPDRFSGSGSGTDFTLKISRVEAEDVGVYYCSQNTHVPPTFGQGTKVEIERTVAAPSVFIFPPSDEQLKSGTASVVCLLNNFYPREAKVQWKVDNALQSGNSQESVTEQDSKDSTYSLSSTLTLSKADYEKHKVYACEVTHQGLSSPVTKSFNRGEC	251 % of control		
GpH7-A5/GpH7-B3 variant Y296_20W/GpL16-k0 (antibody, human IgG1, kappa, also called He Ab Y296_20W) heavy 1: not shown heavy 2: not shown light: DIVMTQSPLSLPVTPGEPASISCQASESLVHSNRNTYLHWYLQKPGQSPQLLIYKVSNRFSGVPDRFSGSGSGTDFTLKISRVEAEDVGVYYCSQNTHVPPTFGQGTKVEIERTVAAPSVFIFPPSDEQLKSGTASVVCLLNNFYPREAKVQWKVDNALQSGNSQESVTEQDSKDSTYSLSSTLTLSKADYEKHKVYACEVTHQGLSSPVTKSFNRGEC	103 % of control		
GpH7-A5/GpH7-B3 variant T335_10E/GpL16-k0 (antibody, human IgG1, kappa, also called He Ab T335_10E) heavy 1: not shown heavy 2: not shown light: DIVMTQSPLSLPVTPGEPASISCQASESLVHSNRNTYLHWYLQKPGQSPQLLIYKVSNRFSGVPDRFSGSGSGTDFTLKISRVEAEDVGVYYCSQNTHVPPTFGQGTKVEIERTVAAPSVFIFPPSDEQLKSGTASVVCLLNNFYPREAKVQWKVDNALQSGNSQESVTEQDSKDSTYSLSSTLTLSKADYEKHKVYACEVTHQGLSSPVTKSFNRGEC	108 % of control		
GpH7-A5/GpH7-B3 variant T335_13S/GpL16-k0 (antibody, human IgG1, kappa, also called He Ab T335_13S) heavy 1: not shown heavy 2: not shown light: DIVMTQSPLSLPVTPGEPASISCQASESLVHSNRNTYLHWYLQKPGQSPQLLIYKVSNRFSGVPDRFSGSGSGTDFTLKISRVEAEDVGVYYCSQNTHVPPTFGQGTKVEIERTVAAPSVFIFPPSDEQLKSGTASVVCLLNNFYPREAKVQWKVDNALQSGNSQESVTEQDSKDSTYSLSSTLTLSKADYEKHKVYACEVTHQGLSSPVTKSFNRGEC	102 % of control		
GpH7-A5/GpH7-B3 variant D265_02A/GpL16-k0 (antibody, human IgG1, kappa, He Ab: mutation in the GpH7-B3 H chain only; also called He Ab) heavy 1: not shown heavy 2: not shown light: DIVMTQSPLSLPVTPGEPASISCQASESLVHSNRNTYLHWYLQKPGQSPQLLIYKVSNRFSGVPDRFSGSGSGTDFTLKISRVEAEDVGVYYCSQNTHVPPTFGQGTKVEIERTVAAPSVFIFPPSDEQLKSGTASVVCLLNNFYPREAKVQWKVDNALQSGNSQESVTEQDSKDSTYSLSSTLTLSKADYEKHKVYACEVTHQGLSSPVTKSFNRGEC			19.9 % of control
GpH7-A5/GpH7-B3 variant A327_10E/GpL16-k0 (antibody, human IgG1, kappa, He Ab: mutation in the GpH7-B3 H chain only; also called He Ab) heavy 1: not shown heavy 2: not shown light: DIVMTQSPLSLPVTPGEPASISCQASESLVHSNRNTYLHWYLQKPGQSPQLLIYKVSNRFSGVPDRFSGSGSGTDFTLKISRVEAEDVGVYYCSQNTHVPPTFGQGTKVEIERTVAAPSVFIFPPSDEQLKSGTASVVCLLNNFYPREAKVQWKVDNALQSGNSQESVTEQDSKDSTYSLSSTLTLSKADYEKHKVYACEVTHQGLSSPVTKSFNRGEC		68.6 % of control	140 % of control
GpH7-A5/GpH7-B3 variant D265_19Q/GpL16-k0 (antibody, human IgG1, kappa, He Ab: mutation in the GpH7-B3 H chain only; also called He Ab) heavy 1: not shown heavy 2: not shown light: DIVMTQSPLSLPVTPGEPASISCQASESLVHSNRNTYLHWYLQKPGQSPQLLIYKVSNRFSGVPDRFSGSGSGTDFTLKISRVEAEDVGVYYCSQNTHVPPTFGQGTKVEIERTVAAPSVFIFPPSDEQLKSGTASVVCLLNNFYPREAKVQWKVDNALQSGNSQESVTEQDSKDSTYSLSSTLTLSKADYEKHKVYACEVTHQGLSSPVTKSFNRGEC			33.4 % of control
GpH7-A5/GpH7-B3 variant T335_15Y/GpL16-k0 (antibody, human IgG1, kappa, also called He Ab T335_15Y) heavy 1: not shown heavy 2: not shown light: DIVMTQSPLSLPVTPGEPASISCQASESLVHSNRNTYLHWYLQKPGQSPQLLIYKVSNRFSGVPDRFSGSGSGTDFTLKISRVEAEDVGVYYCSQNTHVPPTFGQGTKVEIERTVAAPSVFIFPPSDEQLKSGTASVVCLLNNFYPREAKVQWKVDNALQSGNSQESVTEQDSKDSTYSLSSTLTLSKADYEKHKVYACEVTHQGLSSPVTKSFNRGEC	108 % of control		
GpH7-A5/GpH7-B3 variant A327_18N/GpL16-k0 (antibody, human IgG1, kappa, He Ab: mutation in the GpH7-B3 H chain only; also called He Ab) heavy 1: not shown heavy 2: not shown light: DIVMTQSPLSLPVTPGEPASISCQASESLVHSNRNTYLHWYLQKPGQSPQLLIYKVSNRFSGVPDRFSGSGSGTDFTLKISRVEAEDVGVYYCSQNTHVPPTFGQGTKVEIERTVAAPSVFIFPPSDEQLKSGTASVVCLLNNFYPREAKVQWKVDNALQSGNSQESVTEQDSKDSTYSLSSTLTLSKADYEKHKVYACEVTHQGLSSPVTKSFNRGEC		61.1 % of control	113 % of control
GpH7-A5/GpH7-B3 variant A327_07I/GpL16-k0 (antibody, human IgG1, kappa, He Ab: mutation in the GpH7-B3 H chain only; also called He Ab) heavy 1: not shown heavy 2: not shown light: DIVMTQSPLSLPVTPGEPASISCQASESLVHSNRNTYLHWYLQKPGQSPQLLIYKVSNRFSGVPDRFSGSGSGTDFTLKISRVEAEDVGVYYCSQNTHVPPTFGQGTKVEIERTVAAPSVFIFPPSDEQLKSGTASVVCLLNNFYPREAKVQWKVDNALQSGNSQESVTEQDSKDSTYSLSSTLTLSKADYEKHKVYACEVTHQGLSSPVTKSFNRGEC		42.4 % of control	127 % of control
